According to PMC3520970 (PLoS ONE, 2012):
Residue numbers refer to the chain shown, from its start. Names and notes keep the numbering of the source.

T1: His-Myc-tagged MOD (maize, UniProt P25891 17-286, Δ163–164 | Δ167–189, labelled with the crosslinker NHS-SS-Diazirine (SDAD))
T1 construct: source: E. coli BL21(DE3)pLysS, purified (HisTrap); not shown: Myc, C-terminal, kept
T1 sequence: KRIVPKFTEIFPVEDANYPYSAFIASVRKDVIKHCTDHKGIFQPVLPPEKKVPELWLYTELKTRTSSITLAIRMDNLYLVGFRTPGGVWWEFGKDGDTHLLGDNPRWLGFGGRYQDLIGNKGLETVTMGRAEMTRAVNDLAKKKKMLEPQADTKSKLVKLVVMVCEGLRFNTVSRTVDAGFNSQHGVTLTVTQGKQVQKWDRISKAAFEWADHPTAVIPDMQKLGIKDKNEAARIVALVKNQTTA

B1: Maize [Δ1–16, Δ163–164, Δ167–189, Δ287–300]-Pro-RIP (enzyme)
chain: T1 sequence
B2: MOD [K158A-K161A] (enzyme)
chain: T1 sequence with K142A, K143A, K144A, K145A
B3: P2 on rat liver ribosome (natural protein, rat (endogenous in rat liver ribosome), UniProt P02401 1-115, looked up)
chain: MRYVASYLLAALGGNSNPSAKDIKKILDSVGIEADDERLNKVISELNGKNIEDVIAQGVGKLASVPAGGAVAVSAAPGSAAPAAGSAPAAAEEKKDEKKEESEESDDDMGFGLFD
notes: also called P-protein P2
B4: Maize [Δ1–16, Δ287–300]-Pro-RIP (enzyme)
chain: KRIVPKFTEIFPVEDANYPYSAFIASVRKDVIKHCTDHKGIFQPVLPPEKKVPELWLYTELKTRTSSITLAIRMDNLYLVGFRTPGGVWWEFGKDGDTHLLGDNPRWLGFGGRYQDLIGNKGLETVTMGRAEMTRAVNDLAKKKKMATLEEEEVQMQMQMPEAADLAAAAAADPQADTKSKLVKLVVMVCEGLRFNTVSRTVDAGFNSQHGVTLTVTQGKQVQKWDRISKAAFEWADHPTAVIPDMQKLGIKDKNEAARIVALVKNQTTA

Assays:
[1] = biological target: P2 on rat liver ribosome (rat (endogenous in rat liver ribosome)) (UniProt P02401); settings: scale: arbitrary
[2] = biological target: Ribosomal protein P2 (UniProt P05387)
[3] = biological target: Ribosomal protein P2 (UniProt P05387); assay: SPR; BIAcore 3000; P2 amine-coupled to CM5 chip (1300 RU); RIPs injected at 30 µl/min in 20 mM Tris, 30 mM NaCl, 0.005% Tween 20, pH 7.4; KD from RU at equilibrium
[4] = biological target: Ribosomal protein P2 (UniProt P05387 1-115); assay: cell-based or functional assay
[5] = biological target: B3; assay: cell-based or functional assay
[6] = biological target: T1, His-Myc-tagged MOD; assay: cross-linking; SDAD-labelled Myc-MOD (90 µM) with rat liver ribosome (0.8 µM) in PBS, room temperature 30 minutes, UV 365 nm for an hour; western blot with anti-Myc and anti-P; settings: both partners purified

**Q.** Which results are given for Trichosanthin (enzyme)?
**A.** relative N-glycosidase activity on rat liver ribosome (5 nM RIP, qPCR) [1]: 2610; cytotoxicity to 293T cells (MTT, 72 hours), EC50 [2]: 0.63 µM; Kd [3]: 612 µM

**Q.** B1 was tested. Which “cytotoxicity to 293T cells (MTT, 72 hours), IC50 (also called EC50)” value [4] did it give?
**A.** Its value is 7.88 µM.

**Q.** What about the “N-glycosidase activity on rat liver ribosome, folds increased to untreated” value [5] of the same molecule?
**A.** Its value is 14.3 fold.

**Q.** What about the “relative N-glycosidase activity on rat liver ribosome (5 nM RIP, qPCR)” value (from here on “relative N-glycosidase activity”) [5] of the same molecule?
**A.** The value was 54.3 arbitrary (ratio multiplied by an arbitrary factor).

**Q.** For B2, which “N-glycosidase activity on rat liver ribosome, folds increased to untreated” value [5] is on record?
**A.** Its value is 0.85 fold.

**Q.** And the “relative N-glycosidase activity” value [5]?
**A.** The value was 3.24 arbitrary (ratio multiplied by an arbitrary factor).

**Q.** Does B3 bind [6]?
**A.** Result: binds

**Q.** How did the “N-glycosidase activity on rat liver ribosome, folds increased to untreated” value [5] turn out when B4 was run?
**A.** The value was 1.59 fold.

**Q.** And the “relative N-glycosidase activity” value [5]?
**A.** Its value is 6.06 arbitrary (ratio multiplied by an arbitrary factor).
